Measured values reported in US11523990B2, “Non-covalent, self-organzing hydrogel matrix for biotechnological applications” (DENOVOMATRIX GMBH, priority 2012, dated 2022).
Square brackets hold non-standard residues; d marks the D form. Ends that are not written are not given here.

Test: Hydrogel formation of peptide-starPEG conjugates with 14-kDa-heparin
Assay type: physicochemical
Conditions: peptide coupled to 10-kDa starPEG; 5 mM 14-kDa-heparin + 5 mM (2.5 mM) conjugate, 50 μl 1×PBS pH 7.4
Description: Following is the description of the production of the hydrogel networks. Hereby 14-kDa-heparin (25 mM, 2.5 mM) and peptide-starPEG conjugates (6.25 mM, 3.125 mM) were dissolved in physiologic phosphate buffer solution (1×PBS) water or cell culture medium with 2% fetal bovine serum (FBS). These solutions were dissolved in a ratio of 1:4 heparin:peptide-starPEG-conjugate by obtaining […] or 5 mM 14-kDa-heparin and 2.5 mM or 5 mM peptide-starPEG. The ligand/mol ratio was 2:1, 1:1 and 1:5 relative to the mol ratio of 14-kDa-heparin and the peptide-starPEG-conjugate. The mixtures were incubated within a time frame of one hour to overnight at […]. The gelation time spanned from present up to several hours depending on the applied peptide motif.
ATIII is a heparin-binding peptide known from the literature. All peptides are connected to a four-armed, maleimide functionalized 10-kDa-polyethylene glycol (starPEG). The hydrogel formation was tested in a 50 μI mixture, which contains 5 mM 14-kDa-heparin and 5 mM (2.5 mM) peptide-starPEG conjugate in phosphate buffer solution (1×PBS, pH 7.4). The deformation and penetration speed was analyzed through centrifuging the hydrogel in a 45° table centrifuge with 275 μm metal beads added to the surface. The deformation of the surface and the penetration of the metal beads were monitored in dependence on the applied force.
In addition to the peptide motif, a tryptophan was labeled with a one letter code W, for UV detection and purification and a cysteine, marked with the one letter code C, bound to the N-terminal end of the peptide with two glycine. By applying the Michael-addition-chemistry, the cysteine was coupled to the maleimide-functionalized 10-kDa-starPEG. […] This is the largest library of peptide-polymer-conjugates, for which each of the oligosaccharide dependent hydrogel formation was analyzed. To analyze the formation of hydrogels, all peptide-starPEG-conjugates were each mixed with 14-kDa-heparin in 50 μI phosphate buffer (1×PBS) to a final concentration of 5 mM. […]

CWGGkAkAkAkAkAkAkA (CWGG[dK]A[dK]A[dK]A[dK]A[dK]A[dK]A[dK]A) [dKA7]
Hydrogel formation with heparin: neither formation of a hydrogel
